Target: Human CD16 (biotinylated, Sino Biological Inc, cat#10389-H27H1-B) (human) (UniProt P08637)
Test: ELISA, biotinylated CD16 captured on neutravidin, anti-human Fab-HRP detection

Human CD16 (biotinylated, Sino Biological Inc, cat#10389-H27H1-B) (human), sequence (P08637 17-208): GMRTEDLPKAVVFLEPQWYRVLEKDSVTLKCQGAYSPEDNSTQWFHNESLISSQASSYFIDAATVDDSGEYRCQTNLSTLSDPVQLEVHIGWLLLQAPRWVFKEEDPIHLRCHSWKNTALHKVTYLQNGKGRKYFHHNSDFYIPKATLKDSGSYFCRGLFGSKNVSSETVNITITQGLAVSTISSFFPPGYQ

Q: For Synagis (antibody), which EC50 is on record?
A: 6.15 µg/mL

— patent EP2767548A2
